Test results reported in patent US20190367592A1 (AC IMMUNE, published 2019).
Substitutions are numbered along the chain they refer to.

B1: 61E7-C4 (antibody, V domains shown)
VH: EVQLVESGGDLVKPGGSLKVSCVASGFTFRSYGMSWVRQTPDKRLDWVATISSGGNYTYYPDSVKGRFTISRDNAKNTLYLQMSSLKSEDTAMYYCASSYSGAMDYWGQGTSVTVSS
VL: DTVMTQSPLSLPVSLGDQASISCRSSQSIVHSNGNTYLEWYLQKPGQSPKLLIYTVSNRFSGVPDRFSGSGSGTDFTLKISRVEAEDLGVYYCFQGSHVPWTFGGGTKLEIK
notes: hybridoma supernatant
B2: 19F8-B1 (antibody, V domains shown)
VH: EVQLQQSGPELVKPGASVKMSCKASGYTFTDYYMKWVKQSHGKSLEWIGDLNPNNGGTLYNQKFKGQATLTVDKSSSTAYMQFNSLTSEDSAVYYCARSAGYGDSFAYWGQGTLVTVSA
VL: B1 VL with T2V, V3L, S7T, S28N, T55K, V90I, Y92F, W101P
notes: hybridoma supernatant
B3: 24A11-D5 (antibody, V domains shown)
VH: B2 VH with N54K, T58I, L59I, F83L, Y94F, A100G
VL: B1 VL with T2V, V3L, S7T, S28N, T55K, V90I, Y92F, W101P
notes: hybridoma supernatant
B4: 126F11-G11 (antibody, mouse IgG2a, V domains shown)
VH: EVQLQQSGAELVRPGASVKLSCTASGFNIKDDYMHWVKQRPEQGLEWIGWIDPENGDTEYASKFQGKATITTDTSSNTAYLQLSSLTSEDTAVYYCLDFAYGYWGQGTTLTVSS
VL: B1 VL with T2V, V3L, S7T, T55K, W101P, T102A
B5: 93A8-D2 (antibody, mouse IgG2a, V domains shown)
VH: EVQLQQSGPVLVKPGASVKMSCKASGYTFTDYYVNWVKQSHGKGLEWIGLINPNNGRTSYNQNFNDKATLTVDKSSSTAFMDLNSLTSEDSAVYYCTREGGTGYWGQGTTLSVSS
VL: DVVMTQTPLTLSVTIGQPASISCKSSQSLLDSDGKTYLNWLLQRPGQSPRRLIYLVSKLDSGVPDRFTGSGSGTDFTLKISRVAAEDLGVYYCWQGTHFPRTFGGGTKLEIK
B6: 26C1-C8 (antibody, V domains shown)
VH: EVHLQQSGAELVRSGASVKLSCTASGFNIKDYYMYWVKQRPEQGLEWIGWIDPENGDTEYFPKFQGKATMTADTSSKTAYLQLSSLTSEDTAVYYCNAWRARATNSALDYWGQGTSVTVSS
VL: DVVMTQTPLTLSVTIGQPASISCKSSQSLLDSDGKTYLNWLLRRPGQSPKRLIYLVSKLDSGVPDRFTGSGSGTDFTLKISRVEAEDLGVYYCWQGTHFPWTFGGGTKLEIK
notes: hybridoma supernatant
B7: 125B11-H3 (antibody, mouse IgG2a, V domains shown)
VH: EVKLEESGGGLVQPGGSMKLSCVASRFIFSNYWMNWVRQSPEKGLEWVAQIRLKSDNYATHYAESVKGRFTISRDDSKSSVYLQMNNLRAEDTGIYYCTGGTTYWGQGTTLTVSS
VL: DIVMTQSQKFLSTSVGDRVNITCKASQNVGTAVAWYQQKPGQSPGLLIYSASIRYTGVPDRFTGNGSGTDFTLTISDMQSEDLADYFCQQFRTYPYTFGGGTKLEIK
notes: also called 125B1-H3
B8: 63H3-D8 (antibody, V domains shown)
VH: QIQLVQSGPELKKPGETVKISCKASGYTFTSHGMSWVKQAPGKGLKWMGWINTYSGVPTYADDFKGRFAFSLETSASTAYLQINNLKNEDTATYFCARSELSWFAYWGQGTLVTVSA
VL: DIVMTQSPATLSVTPGDRVSLSCRASQSISDYLHWYQQKSHESPRLLIKYASQSISGIPSRFSGSGSGSDFTLSINSVEPEDVGVYYCQNGHSFPYTFGGGTKLEIK
notes: hybridoma supernatant
B9: 64B9-F12 (antibody, V domains shown)
VH: B8 VH with K12R, S31T, H32Y, K43E, V57M, S77R
VL: B8 VL with S93N
notes: hybridoma supernatant
B10: 7A11-C12 (antibody, V domains shown)
VH: QIQLVQSGPDLKKPGETVKISCKASGYTFTNYGMNWVKQAPGKGLKWMGWINTNTGEPTYAEEFKGRFAFSLETSASTAYLQIDNLKNEDTATYFCARGTVSFPYWGQGTLVTVSA
VL: DVVMSQTPLSLPVSLGDHASISCRSSQNLVHSDGNTYLHWYLQKPGQSPKLLIYKVSNRFSGVPDRFSGSGSGTDFTLKISRVEAEDLGVYFCSQSTHVIFTFGSGTKLEIK
notes: hybridoma supernatant
B11: 49G10-F4 (antibody, V domains shown)
VH: QVQLQQPGAELVQPGASVKLSCKASGYTFTNYWMQWIKQRPGQGLEWIGEIDPSDSYTNYNQNFKDKATLTVDTSSRTAYMQLSSLTSEDSAVYYCTRRWYINSVRYFDVWGTGTTVTVSA
VL: DVLMTQTPLSLSASLGDQASISCRSSQSIVHSNGNIYLEWYLQKPGQSPKLLIYKVSNRFSGVSDRFSGSGSGTDFTLKISRVEAEDLGVYYCFQGAHVPFTFGAGTKLEIK
notes: hybridoma supernatant
B12: 65B1-A2 (antibody, V domains shown)
VH: QVQLKESGPGLVAPSQSLSITCTISGFSLTTYGVHWVRQPPGKGLEWLVVIWSDGSTTYNSALKSRLSISKDNSKSQVFLKMNSLQTDDTAMYYCARQGGFITTAYYAMDYWGQGTSVTVSS
VL: DIVMSQSPSSLAVSAGEKVTMSCKSSQSLLNSRTRKNYLAWYQQKPGQSPKLLIYWASTRESGVPDRFTGSGSGTDFTLTISSVQAEDLAVYYCKQSYNLYTFGGGTKLEIK
notes: hybridoma supernatant
B13: 83E10-D6 (antibody, V domains shown)
VH: EVQLQQSGAELVRSGASVKLSCTASGFNIKDYYIQWVKQRPEQGLEWIGWIDPENGDTDYAPKFQGKATMTADTSSNTAYLQFSSLTSEDTAVYYCNRGWGYWGQGTTLTVSS
VL: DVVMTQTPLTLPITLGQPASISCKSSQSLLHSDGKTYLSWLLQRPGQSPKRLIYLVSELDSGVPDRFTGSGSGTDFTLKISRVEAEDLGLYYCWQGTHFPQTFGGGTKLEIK
notes: hybridoma supernatant
B14: 231G3F10 (antibody, V domains shown)
VH: EVRLVESGGGLVQPKGSLKLSCAASGFSFNTYAMNWVRQAPGKGLEWVARIRSKRNNFATYYADSVKDRFTISRDDSKSMLYLQMNNLKTEDTAMYYCVRWGYDDPYAMDYWGQGTSVTVSS
VL: NIMMTQSPSSLAVSAGEKVTMSCKSSQSVLYSSNQKNYLAWYQQKPGQSPKLLIYWASARESGVPDRFTGSGSGTDFTLTISSVQAEDLAVYYCHQYFSSFTFGSGTKLEIK
B15: 52F6-F11 (antibody, V domains shown)
VH: QVQLQQSGTELAKPGASVKLSCKASGYTFTHYWMHWIKQRPGQGLEWIGYIYPTNDYTKYNQNFRDKATLTADESSNSAYMQLNSLTYEDSAVYYCARAGNRVFDFWGQGTTLTVSS
VL: QAVVTQESALTTSPGETVTLTCRSSTGAVTTSNFANWVQEKPDHLFTGLIGGTNNRAPGVPARFSGSLIGDKAALTITGAQTEDEAIYFCALWYSNLWVFGGGTKLTVL
notes: hybridoma supernatant
B16: 30A1-C9 (antibody, V domains shown)
VH: GVQLQQSGPELVKPGASVKISCKTSGYTFTEYTMHWMKQSHGKSLEWIGGIDPNTGNTNYNQKFKGKATLTVDKSSSTAYMDLRSLTSEDSAVYYFYGSGYWGQGTILTVSS
VL: B1 VL with T2V, V3L, Y41F, T55K, G96A, W101R
notes: hybridoma supernatant
B17: 22G7-C9 (antibody, V domains shown)
VH: QIQLVQSGPELKKPGETVKISCKASGYTFTDCSIHWVKQAPGEGLKWMGWINTETGEPSYADDFKGRFAFSLETSASTAFLQINNLKSEDTASYFCGTAYYRYDGALDYWGQGTSVTVSS
VL: DIVLTQSPASLAVSLGQRATISCRASQSVSTSSYSYMHWFQQKPGQPPKLLIKYASNLESGVPARFSGSGSGTDFTLNIHPVEEEDTATYYCQHSWELPWTFGGGTKLEIK
notes: hybridoma supernatant
B18: 71H8-D6 (antibody, V domains shown)
VH: B13 VH
VL: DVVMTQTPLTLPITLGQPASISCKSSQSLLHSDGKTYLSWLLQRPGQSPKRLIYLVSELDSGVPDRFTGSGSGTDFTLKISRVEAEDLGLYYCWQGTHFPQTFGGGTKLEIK
notes: hybridoma supernatant
B19: 307H3E8 (antibody, V domains shown)
VH: EVKFEESGGGLVQPGGSMKLSCVASGFTFSNYWMNWVRQSPEKGLEWVAQIRLKSDNHATHYAESVKGRFTISRDDSKSTVYLQMNNLGAEDTGIYFCTEGGAYFDYWGQGTTLTVSS
VL: B10 VL with S5T, H18Q, D33N, L38F, F92V, I100P, F101P, S105G
B20: 113F5-F7 (antibody, V domains shown)
VH: B7 VH with K19R, R26E, I28T, V37I, D76A, K78N, S79F, T103S
VL: DIVMTQSQKIMSTSVGDRVSITCKASQNVGTAVAWYQQRPGHSPKLLIYSASRRFSGVPDRFTGSGSGTDFTLTIINVQSEDLADYFCQQFSTYPYTFGVGTKLEIK
notes: hybridoma supernatant

What was measured:
[1] = molecular target: T1, full-length human Tau (flTau) (human, UniProt P10636-8 1-441); assay: SPR, hybridoma Ab on anti-IgG chip, flTau analyte
T1 construct: range 1-441; bought (SignalChem); also called human Tau-441
Protocol: Affinity of non-purified antibodies in serum-free hybridoma supernatants was estimated by surface plasmon resonance using a Biacore T-100 instrument (GE Healthcare, United Kingdom). Antibodies were immobilized onto an anti-IgG biosensor chip, and flTau (SignalChem, Canada) was used as the target analyte. Kinetic analysis was done using a 1:1 Langmuir fit model.
For affinity measurements to flTau, antibodies were measured using SPR on a Biacore instrument, with the KDs determined. Biacore affinity measurements were done by immobilizing antibodies on an anti-IgG chip and using flTau as the target analyte.

[2] = molecular target: T2, recombinant human Tau monomer, 2N4R isoform (amino acids 2-441) (human, UniProt P10636-8 2-441); assay: SPR, mIgG2a captured, Tau monomer analyte, 1:1 fit
T2 construct: range 2-441; N-terminal His-tag removed with TEV protease; also called monomeric Tau
Source text: Antibody heavy and light chains were constructed via gene synthesis and subcloning of the resulting DNA into murine IgG2a (heavy chain) and murine kappa (light chain) mammalian expression vectors. Antibodies were expressed in CHO or 293T cells by transient co-transfection of the heavy chain and light chain plasmids and were purified with affinity resin MabSelectSure (GE Healthcare Life Sciences). Purified recombinant antibodies were screened for binding to Tau monomer protein on a Biacore T200 surface plasmon resonance instrument using a mouse IgG capture kit and a Series S CM5 chip. Antibodies in mIgG2a format diluted in 10 mM HEPES pH7.4, 150 mM NaCl, 0.05% Tween 20 (running buffer, HBSP) were captured for 30 or 45 seconds at a concentration of 1 μg/ml (antibodies 26C1, 94B2-C1, 52F6-F11.v1, 52F6-F11.v2, 11E10-B8, 55E7-F11, 125B1-H3, 123E9-A1, 30G1-B2, 66F5-A1, 89F4-A1, 93A8-D2 and 126F11-G11) or for 70 or 150 seconds at a concentration of 0.1 μg/ml (antibodies 19H6-F7, 3A4-H4, 54C1-H11 and 37D3-H9) using a flow rate of 10 μl/min. […] Association and dissociation times were monitored for 180-480 seconds and for 300-600 seconds respectively. Antibody 37D3-H9 was selected for further analysis due to the high affinity (Table 6) and the absence of NXS/T glycosylation motifs in the CDRs.

T2 sequence (P10636 other isoform, or with tags, fused parts or gaps limits assumed): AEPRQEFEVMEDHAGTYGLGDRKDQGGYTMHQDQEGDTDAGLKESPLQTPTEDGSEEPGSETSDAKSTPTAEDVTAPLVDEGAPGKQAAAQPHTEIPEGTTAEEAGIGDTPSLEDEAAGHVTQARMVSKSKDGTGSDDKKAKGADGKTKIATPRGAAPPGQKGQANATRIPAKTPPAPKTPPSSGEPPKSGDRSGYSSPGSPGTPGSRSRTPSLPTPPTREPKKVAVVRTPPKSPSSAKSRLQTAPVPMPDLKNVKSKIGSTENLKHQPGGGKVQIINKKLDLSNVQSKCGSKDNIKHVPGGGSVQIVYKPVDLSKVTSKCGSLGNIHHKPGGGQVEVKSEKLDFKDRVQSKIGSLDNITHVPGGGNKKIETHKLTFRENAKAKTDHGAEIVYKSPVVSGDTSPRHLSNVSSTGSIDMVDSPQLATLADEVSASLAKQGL
T1 sequence (P10636 other isoform, or with tags, fused parts or gaps limits assumed): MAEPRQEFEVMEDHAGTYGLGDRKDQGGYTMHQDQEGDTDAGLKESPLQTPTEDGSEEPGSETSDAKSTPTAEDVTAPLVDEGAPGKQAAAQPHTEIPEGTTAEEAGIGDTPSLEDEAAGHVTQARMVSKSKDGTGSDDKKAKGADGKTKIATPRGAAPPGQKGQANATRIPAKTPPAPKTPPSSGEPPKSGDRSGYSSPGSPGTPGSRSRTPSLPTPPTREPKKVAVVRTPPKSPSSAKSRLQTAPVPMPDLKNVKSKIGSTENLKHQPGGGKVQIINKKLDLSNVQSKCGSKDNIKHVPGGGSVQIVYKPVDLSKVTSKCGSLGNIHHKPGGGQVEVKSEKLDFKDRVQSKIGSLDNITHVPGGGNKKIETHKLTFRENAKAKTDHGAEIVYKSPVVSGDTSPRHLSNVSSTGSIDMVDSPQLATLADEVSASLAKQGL

Binder | Kd [1] [nM] | Kd [2] [nM] | koff [2] [s⁻¹] | kon [2] [M⁻¹ s⁻¹]
B1 | 3.3 | – | – | –
B2 | 2.9 | – | – | –
B3 | 2 | – | – | –
B4 | 4.2 | 3 | 0.004 | 2e+06
B5 | 4.3 | 6 | 0.002 | 300000
B6 | 4.3 | – | – | –
B7 | 6 | 5 | 0.0003 | 50000
B8 | 0.5 | – | – | –
B9 | 2 | – | – | –
B10 | 0.5 | – | – | –
B11 | 1 | – | – | –
B12 | 0.8 | – | – | –
B13 | 0.4 | – | – | –
B14 | 0.2 | – | – | –
B15 | 8.4 | – | – | –
B16 | 0.6 | – | – | –
B17 | 36 | – | – | –
B18 | 0.8 | – | – | –
B19 | 1 | – | – | –
B20 | 2.4 | – | – | –
